Patent publication US20100040635A1 (SEA LANE BIOTECHNOLOGIES, published 2010)
Changes are numbered by the printed parent chain.

B1: Antibody 1 (antibody, V domains shown)
VH: QVQLVQSGAEVKKPGSSVRVSCKTSGGTFSSYAVTWVRQAPGQGLEWMGGIIGMFGTTNYAQKFQGRLTITADEMTSTAYMELSSLRSEDTAVYYCARGSYYYETTLDYWGRGTL
VL: ETTLTQSPGTLSLSPGERATLSCRVSQSVSSNYLAWYQQKPGQAPRLLIYGASSRATGIPDRFSGSGSGTDFTLTISRLEPEDFAVYYCQQYGTSPRAFGHGTKVEIKR
B2: Antibody 2 (antibody, V domains shown)
VH: B1 VH with R19K, L68V, M75L, T105S, T106S
VL: ETTLTQSPATLSVSPGERATLSCRASQSVSRNLAWYQQKPGQAPRLLIYGASSRATGIPDRFSGSGSGTDFTLTISRLEPEDFAVYYCQQYGSSSITFGQGTRLEIKR
B3: Antibody 3 (antibody, V domains shown)
V domain 1: B1 VH with Q1E, R19K, G50A, L68V, M75L, E89D, T105S, T106S, R112K
V domain 2: QSVLTQPPSVSGAPGQRVTISCGGSRSNIGAGYDVHWYQQFPGTAPKVVIYGNNNRPSGVPDRFSGSKSGTSASLAITGLQAEDEANYYCQSYDTNLGGSIFGGGTQVTVL
B4: Antibody 4 (antibody, V domains shown)
VH: QVQLQESGPGLVKPSETLSLTCTVSGYSFDSGYYWGWLRQPPGKGLEWIGSIYHSRNTYYNPSLKSRVTISVDTSKNQFSLQLSSVTAADTAVYYCARGTWYSSNLRYWFDPWGKGTL
VL: NFMLTQPHSVSESPGKTVTISCTGSGGNIARNYVQWYQQRPGSAPVTVILEDDKRPSGIPDRFSGSIDRSSNSASLTISGLRTEDEALYYCQSYDDSDLVVFGGGTKLT

Target: H3 hemagglutinin of influenza A/Hong Kong/68 (influenza A virus H3 A/Hong Kong/68)
Assay: cell-based or functional assay

| Binder | Minimum inhibitory concentrations required to neutralize virus |
| --- | --- |
| B1 | > 333 µg/mL |
| B2 | > 333 µg/mL |
| B3 | > 333 µg/mL |
| B4 | > 333 µg/mL |
